Measured values from the supplement of paper PMC12042874.
± gives the uncertainty stated by the source.

Test: amyloid nucleation score (Sup35N fusion, yeast selection) (log enrichment); library NNK1; higher = more nucleation; inactive = no reads after selection
Summary of the method: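 Peptides of 20 random codons fused to Sup35N were expressed in psi-negative yeast, induced 24 hours with 100 μM copper sulfate, then grown 7 days at 30°C on medium lacking adenine and uracil. Input and output plasmid inserts were Illumina-sequenced. Nucleation score is the DiMSum log enrichment of output over input reads, centred on the mode score of non-aggregating sequences, excluding sequences with under 100 input reads. Random libraries had three technical output replicates.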

| Substance | amyloid nucleation score |
| --- | --- |
| CWVYDGRIYPHL | 1.05 ± 0.85 |
| CYKAAQGFIFSRK | 0.482 ± 0.32 |
| CYNTRVPFGMPLKRTPYRSR | -0.509 ± 1.1 |
| DAEWF | 0.393 ± 0.27 |
| DAIHVWCICRKSLVFILRNS | 0.086 ± 1 |
| DAWGTVRYSIGFKGVVAMTS | 0.149 ± 0.29 |
| DAYMMLFLYSPVWECFLMKG | -0.084 ± 0.28 |
| DCKLGISGIDLVNRFLYPCM | 1.33 ± 0.84 |
| DCLRILDGQYRRRIDRALRV | 0.09 ± 0.7 |
| DCLSSGFLDTLYVVQVRGSD | inactive |
| DCRMFDFLA | -0.444 ± 0.38 |
| DDKIVRIEDSMAASNIAFLA | 0.371 ± 0.32 |
| DDLLH | 0.387 ± 0.79 |
| DEDHFYTSRML | 0.639 ± 1.1 |
| DFAFYTVTLCFE | 0.809 ± 0.35 |
| DFCVPHGNCFLA | -0.747 ± 0.48 |
| DFGRFTGSG | -0.824 ± 2.1 |
| DFHDLSNLVTGGLLITHIL | 1.01 ± 0.58 |
| DFHTITGMANFTLSLCYSHK | -0.945 ± 1.4 |
| DFNSISDAKNCWSYLM | 1.25 ± 0.13 |
| DFSLSSPRFLFGDGCRNCNA | -0.028 ± 0.36 |
| DFVLIFLRICSCPSHTNFYL | 3.45 ± 0.12 |
| DGARDFRLRMLACSRLSRGI | 0.053 ± 0.72 |
| DGCDGCLTYAKCGYLGFY | 0.424 ± 0.67 |
| DGCIKLWGF | 0.779 ± 0.67 |

| Substance | amyloid nucleation score |
| --- | --- |
| DGCSRFRREGAEVYQRMGIG | 1.04 ± 0.85 |
| DGGAFAGRS | -1.06 ± 0.81 |
| DGRRLNLIWLYRIFWN | -0.767 ± 0.37 |
| DGSVFFKADRVPLRSSNGGI | 1.2 ± 0.52 |
| DGSVYTPVIVY | 0.207 ± 0.29 |
| DGTNSVRIASWLNIDEGAL | -0.225 ± 0.42 |
| DHITKHFIGV | inactive |
| DHSCWGAWWVHFGAHDGGWC | 1.25 ± 0.79 |
| DIALMWLLLVHRDYT | -1.07 ± 0.76 |
| DICVWDYMNRGGQLL | -0.047 ± 0.86 |
| DIRCGLDGNWVSSFVRQQGS | inactive |
| DIRMVDWVRNRVQHVADGK | -0.892 ± 0.7 |
| DIRNLLTWSISDVVTVRKIG | -0.643 ± 0.33 |
| DISMLRKKSCKHTVNMMSL | -0.431 ± 0.27 |
| DIVATYRVRISLNPNVMVTY | 0.466 ± 0.32 |
| DKELSFAKGACSKFSDSFRA | -1.45 ± 1.1 |
| DKRNVASYDSMCQLLAILFN | 0.512 ± 0.34 |
| DLAFRPVLVLQ | 0.762 ± 0.65 |
| DLAHYAW | 0.286 ± 0.45 |
| DLDKRMVSYDFKICGYKINF | 3.77 ± 0.1 |
| DLMGSWYDLRYMKGLKGK | -0.265 ± 0.13 |
| DLPLGQRYSCAQVGGWSYYE | 0.556 ± 0.45 |
| DLSNNRWWFNRFRALHYKSS | -0.358 ± 0.85 |
| DLSWSGTFSAGHGNMNFTKS | 2.53 ± 0.15 |
| DLTVWSTIFDSMSTCEHRGG | 0.257 ± 0.42 |

| Substance | amyloid nucleation score |
| --- | --- |
| DLVSVHHVNRLRCWSGCLCE | -0.532 ± 0.51 |
| DLYEAMSRNLADYRAVWGLS | inactive |
| DMDGDSLGVFWALATVYQAH | -0.551 ± 0.36 |
| DMEYGGKRHNNCSDLIITNC | -0.726 ± 1.1 |
| DMGSHIARSTKMVPICGGSR | -0.259 ± 1.4 |
| DMNILVLLMGDVVRLATTEW | 2.68 ± 0.17 |
| DMNLRVDLYMKFEWSGLVER | 0.109 ± 0.36 |
| DMQSEGDRGDHRGSRDCRS | 0.983 ± 1 |
| DNIYIYIPVTYFCATLRMWR | 5.09 ± 0.071 |
| DNMSVLYDTTLVFRWIWVEP | inactive |
| DNSRIYLCGSLNCFYFSDVL | 7.656 ± 0.074 |
| DNVFEALAL | inactive |
| DNYVMWVLEGLSYVLGNNRI | -0.087 ± 1 |
| DPEVIGLIVCNM | -1.16 ± 1 |
| DREIAMVWHLSYIIFYFSES | -0.993 ± 0.33 |
| DRFSYLEHDSRDRRRVE | inactive |
| DRMKTQGFCQTFNFWLGYYI | 6.97 ± 0.075 |
| DRMLLMVCIVWNRFVKGFPH | inactive |
| DRNYVGELTEFTGVMGRGRQ | -0.858 ± 1.1 |
| DRPTRLSVIFGRPP | inactive |
| DRRGRRYKVRRVCMVMESLG | 0.703 ± 0.58 |
| DRTLDDPGVHHASKAE | inactive |
| DRWWILNGTTDLSLGWVLEC | 0.648 ± 0.97 |
| DRYCGYWNGTSSCMICGRVV | 1.1 ± 0.69 |
| DSCRWGFLRVRVLGFSSVWY | -0.28 ± 0.49 |

| Substance | amyloid nucleation score |
| --- | --- |
| DSEDVVLQCEWWTRLARIEY | -0.333 ± 0.54 |
| DSGLSAMGMELRCYEYLVSW | 0.886 ± 1.1 |
| DSLVGVARDSMTSKQHNKNE | -0.112 ± 0.69 |
| DSMKN | 1.39 ± 0.13 |
| DSQMYTMH | -0.054 ± 0.71 |
| DSSMWFTASLYSYVLLSLNL | 0.73 ± 0.36 |
| DSSRSVFLWTGG | -0.994 ± 1.9 |
| DSSYKWWTYFWGA | -0.267 ± 0.42 |
| DSVLNGSFAACLDWDALPGQ | 0.272 ± 0.54 |
| DSWRSIIGFRERVSTMQYLI | 0.96 ± 0.66 |
| DSYDTTSNRAPVMLKVNYSM | -0.692 ± 0.64 |
| DTINAGWSHLEARCLRFLHV | -0.795 ± 0.38 |
| DTKNAWLILSTYLDNLFHIS | 0.976 ± 0.33 |
| DTLPRFRSRNSIVRNLSKNG | inactive |
| DVAARVQKNCPVIIGAIRSK | 0.091 ± 1.6 |
| DVEIFTISWVKEVVYRDTWA | 1.59 ± 0.7 |
| DVGCLCNNMHMILILLNYRV | 0.446 ± 0.44 |
| DVILCAK | inactive |
| DVISLTHVEKSWLVSLWKRS | -0.045 ± 0.69 |
| DVVLVYGTITGSWVQSVWEG | 0.553 ± 0.69 |
| DVVSFSKVCVVCGLSWSASY | 6.662 ± 0.06 |
| DWANSTDFV | -0.195 ± 0.18 |
| DWFWWKIVGWVRNSNMRSYS | 0.946 ± 0.6 |
| DWGERRLSRFNGAYSVVTMV | 0.599 ± 0.6 |
| DWGPTNTFGPYQINNLTCSS | -1.91 ± 1.9 |

| Substance | amyloid nucleation score |
| --- | --- |
| DWLVRGVFPYVGMLDIALTY | 0.356 ± 0.72 |
| DWNVQGQWFHQC | 0.677 ± 0.72 |
| DWPMELLASYMTPMLVTRV | inactive |
| DWRFSGALRLSLMHTYQ | 4.09 ± 0.072 |
| DWSSRVFPGSLGTKAGSHA | -1.58 ± 1.4 |
| DYDRTSFFEDSFVTD | -0.7 ± 1.1 |
| DYESSVGRSQDLAY | -0.745 ± 2.4 |
| DYRTCSCF | inactive |
| DYTILYVVWILCGIKMSVVI | 0.699 ± 0.66 |
| DYVHFMCHGLGR | -0.185 ± 0.63 |
| DYWRHSHVLHSPTKRKNRLV | 0.223 ± 0.34 |
| EACETLRLYELCLFKWERFR | 0.47 ± 0.58 |
| EAFRLCGLVRACVAFCG | 0.116 ± 0.3 |
| EAIISNCNFVIQIMCYHYTA | inactive |
| ECCWLRVTRLGLWDDVVHSE | -0.163 ± 0.33 |
| ECDYDYGTSWSQVSYVRGV | -0.773 ± 1.2 |
| ECPRVSLASGDVE | 1.17 ± 0.66 |
| ECQCFDQICEQLNSYRDQFS | 0.105 ± 0.97 |
| ECTRSGVFSCNSWIKYESSM | -0.145 ± 0.31 |
| EDKYFA | 0.323 ± 0.69 |
| EDRYGIVC | -0.25 ± 0.74 |
| EEGDAAGVVILNMQRSYG | -0.427 ± 0.41 |
| EFIIAWVWRLHNWVSGFRHS | 0.343 ± 0.35 |
| EFMYYL | -0.979 ± 1.9 |
| EFPIHQERAPSTTIHPSVSC | 0.765 ± 0.9 |

| Substance | amyloid nucleation score |
| --- | --- |
| EFRMFTLKLR | 1.13 ± 0.65 |
| EGDYNGGCCQGLLNCQ | -0.562 ± 0.56 |
| EGFITSSMALGLHFVLLGWV | -1.37 ± 1.3 |
| EGNSDCLWVGYGASMTRWVR | 0.258 ± 0.88 |
| EGQTGLLVWYGSHSVRLGNF | -0.957 ± 2.4 |
| EGRLTVE | -0.011 ± 0.32 |
| EGRSWLGTESGLYGNVREND | 0.577 ± 0.68 |
| EGSVGHRMVSWVFISYTLVL | 0.006 ± 1.1 |
| EGWPTSTLSLSRYALLGSPR | -0.486 ± 0.66 |
| EHLRFKKANNVLYVNESSSV | -1.59 ± 1.3 |
| EICMRPY | -0.081 ± 1.1 |
| EICSSESAVQKHNSPWGSDY | -1.71 ± 2.7 |
| EIGYMGLSVSIFRCVWLFIF | 0.056 ± 0.34 |
| EIKISSDGTVSMARGRWCQG | 6.615 ± 0.05 |
| EILETGRCLSFLYRIVDGCI | inactive |
| EILFFEFFKNEFLYCHKMLC | 0.902 ± 0.4 |
| EKELIK | 1.1 ± 0.61 |
| EKGFVYYTRGYLRDGLGRSQ | -0.222 ± 0.35 |
| EKILLG | -1.8 ± 2.4 |
| EKLKMVVGWVVPLSAHMQEY | 0.609 ± 0.84 |
| EKRLYGYLKDHLE | -0.605 ± 0.35 |
| EKVILHANCFCITMNRMLYH | -0.015 ± 0.39 |
| ELCAQYVIFSFASSRSYDSY | 0.579 ± 0.28 |
| ELGSGFQFVYSYS | -0.465 ± 0.46 |
| ELHTAEFNLNRM | 1.04 ± 0.73 |

| Substance | amyloid nucleation score |
| --- | --- |
| ELIHILDLVVTPGRFGRPVN | 2.58 ± 0.36 |
| ELKLLSNAFGMQGIWIRRVV | -0.113 ± 0.32 |
| ELKRGVHLRPE | 4.36 ± 0.14 |
| ELKTFTDKIGG | inactive |
| ELLYGWGIP | -0.723 ± 0.76 |
| ELTNR | 0.044 ± 0.39 |
| ELVYRMESIFCSELRVLGKF | 4.14 ± 0.15 |
| EMFHVVGSRLMPVRMVRNQC | inactive |
| EMTRLLNSCIKYQYSRQRYA | -0.97 ± 1.2 |
| EMYKSVP | 0.109 ± 0.48 |
| EMYKTRAFLSRKYMRHLLFN | -0.316 ± 0.39 |
| ENHAKLHDICGASGLSREGG | 0.592 ± 0.49 |
| ENKHVGICSGVQFVAFETCY | inactive |
| ENRFARCYRVV | 2.1 ± 0.1 |
| EPCVGNSNSCCVHC | -0.072 ± 0.53 |
| EPGSLTESKSFYFLSCPTTR | 0.808 ± 0.7 |
| EPYSLAIKGVHTLLRGSRKS | 0.571 ± 0.29 |
| ERLGLRRFTIIISRQAQV | 0.03 ± 0.34 |
| ERLHMLLAKCIHVGETRHLN | 0.194 ± 0.66 |
| ERPTNSYGSREILNSYIINF | 5.05 ± 0.084 |
